Data on 29 molecules can be found in US20220259593A1, “CONTROL OF MAMMALIAN GENE DOSAGE USING CRISPR” (The Regents of the University of California, priority 2019, published 2022).

In this data set the test system is K562 CRISPRi cells. As to the kind of experiment: Constant region variant library pooled growth screen, K562. The conditions noted are these: sgRNA constant region variants. Type of data set: cell-based, human. In a few lines:
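Library of sgRNA constant-region variants, each paired with 36 targeting sequences (essential-gene and non-targeting), transduced in duplicate into K562 CRISPRi cells, puromycin-selected and grown 4–8 days at >2000× coverage. Activity per variant is its growth phenotype normalised to the same targeting sequence with unmodified constant region.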

[1] abbreviates: relative to the original, un-modified constant region cr995 (= 1).
Where [2] appears, read: activity relative to the original, un-modified constant region cr995.

Residue numbers refer to the chain shown, from its start.

B1: cr155 (nucleic acid)
guide: GTTTAAGAGCTAAGCTGGAAACAGCATAGCAAGTTTAAATAAGGCTAGTCCGTTATCAATTGGAAACAATGGCATCGAGTCGATGCT
modifications: listed as DNA, chemistry not fully specified
Under setting [1], B1 returned a Mean relative activity of 1.003.

B2: cr269 (nucleic acid)
guide: B1 guide with T60C, G62T, C67A, A69G, G72C, C73A, T75C, A83G, G85T, C86G
modifications: listed as DNA, chemistry not fully specified
B2 yielded a Mean relative activity under setting [1] of 0.9979.

B3: cr152 (nucleic acid)
guide: B1 guide with T60C, G62T, C67A, A69G, G72A, C73A, T75C, A83G, G85T, C86T
modifications: listed as DNA, chemistry not fully specified
Turning to B3, the Mean relative activity under setting [1] came to 0.9971.

B4: cr901 (nucleic acid)
guide: B1 guide with T60C, G62T, A66G, C67A, A69G, T75C, A83G
modifications: listed as DNA, chemistry not fully specified
B4 displayed a Mean relative activity under setting [1] of 1.003.

B5: cr851 (nucleic acid)
guide: B1 guide with A59G, T60C, G62T, C67A, A69G, T70C, T75C, G77A, C81T, A83G
modifications: listed as DNA, chemistry not fully specified
Consider B5, for which the Mean relative activity under setting [1] is listed as 1.002.

B6: cr698 (nucleic acid)
guide: B1 guide with G29A, T54A, T60C, G62T, A64T, C67A, A69G, T75C, A83G
modifications: listed as DNA, chemistry not fully specified
The molecule B6 had a Mean relative activity under setting [1] of 0.9956.

B7: cr956 (nucleic acid)
guide: B1 guide with T46A, T60C, G62T, C67A, A69G, T75C, A83G
modifications: listed as DNA, chemistry not fully specified
On to B7, for which, under setting [1], the Mean relative activity was found to be 0.9983.

B8: cr156 (nucleic acid)
guide: B1 guide with T60C, G62A, C67T, A69G, T75C, A83G
modifications: listed as DNA, chemistry not fully specified
Regarding B8, the Mean relative activity under setting [2] stood at 1.072.

B9: cr145 (nucleic acid)
guide: B1 guide with T60C, G62T, A65T, C67A, A69G, T75C, A83G
modifications: listed as DNA, chemistry not fully specified
For the molecule B9, the Mean relative activity under setting [1] is 0.9925.

B10: cr489 (nucleic acid)
guide: B1 guide with T60C, G62T, A65G, C67A, A69G, C73G, T75C, A83G, G85C
modifications: listed as DNA, chemistry not fully specified
Under setting [1], B10 displayed a Mean relative activity of 0.9991.

B11: cr995: original, un-modified sgRNA constant region sequence (nucleic acid)
guide: B1 guide with T60C, G62T, C67A, A69G, T75C, A83G
modifications: listed as DNA, chemistry not fully specified
Consider B11, for which the Mean relative activity under setting [1] is 1.

B12: cr713 (nucleic acid)
guide: B1 guide with T60C, G62A, A65G, C67T, A69G, T75C, A83G
modifications: listed as DNA, chemistry not fully specified
Take B12: under setting [1], the Mean relative activity amounted to 0.9979.

B13: cr945 (nucleic acid)
guide: B1 guide with T60C, G62T, A66G, C67A, A69G, T75C, G79T, A83G
modifications: listed as DNA, chemistry not fully specified
In turn, B13 gave a Mean relative activity under setting [1] of 1.002.

B14: cr923 (nucleic acid)
guide: B1 guide with T60C, G62T, C67A, A69G, G72A, A74C, T75C, A83G, T84G, C86T
modifications: listed as DNA, chemistry not fully specified
In turn, B14 showed a Mean relative activity under setting [1] of 1.002.

B15: cr195 (nucleic acid)
guide: B1 guide with T60C, G62T, A64C, C67A, A69G, T75C, G79T, A83G
modifications: listed as DNA, chemistry not fully specified
Molecule B15 registered a Mean relative activity under setting [1] of 0.9986.

B16: cr392 (nucleic acid)
guide: B1 guide with A32T, T60C, G62T, A65T, C67A, A69G, T75C, A83G
modifications: listed as DNA, chemistry not fully specified
The molecule B16 gave a Mean relative activity under setting [1] of 0.9999.

B17: cr947 (nucleic acid)
guide: B1 guide with A19G, T60C, G62T, C67A, A69G, T75C, A83G
modifications: listed as DNA, chemistry not fully specified
With B17, the Mean relative activity under setting [1] came to 0.9997.

B18: cr172 (nucleic acid)
guide: B1 guide with A47T, T60C, G62T, A64T, C67A, A69G, T75C, A83G
modifications: listed as DNA, chemistry not fully specified
B18 registered a Mean relative activity under setting [1] of 0.9996.

B19: cr893 (nucleic acid)
guide: B1 guide with T60C, G62T, C67A, A69G, T75C, A83G, C86T
modifications: listed as DNA, chemistry not fully specified
B19 registered a Mean relative activity under setting [1] of 0.9932.

B20: cr722 (nucleic acid)
guide: B1 guide with T60C, G62T, A65G, C67A, A69G, A74C, T75C, A83G, T84G
modifications: listed as DNA, chemistry not fully specified
As for B20, the Mean relative activity under setting [1] stood at 1.001.

B21: cr363 (nucleic acid)
guide: B1 guide with G62C, C67G, T75C, A83G
modifications: listed as DNA, chemistry not fully specified
The molecule B21 had a Mean relative activity under setting [2] of 1.07.

B22: cr636 (nucleic acid)
guide: B1 guide with T60C, G62T, A64G, A65T, C67A, A69G, T75C, A83G
modifications: listed as DNA, chemistry not fully specified
B22 came in with a Mean relative activity under setting [1] of 0.992.

B23: cr839 (nucleic acid)
guide: B1 guide with T60C, G62T, A65G, C67A, A69G, T75C, A83G
modifications: listed as DNA, chemistry not fully specified
Regarding B23, under setting [1], the Mean relative activity was 0.9918.

B24: cr128 (nucleic acid)
guide: B1 guide with A59G, T60C, G62T, C67A, A69G, T70C, T75C, C76A, G82T, A83G
modifications: listed as DNA, chemistry not fully specified
The molecule B24 registered a Mean relative activity under setting [1] of 1.002.

B25: cr932 (nucleic acid)
guide: B1 guide with C30T, T60C, G62T, C67A, A69G, T75C, A83G
modifications: listed as DNA, chemistry not fully specified
Take B25: the Mean relative activity under setting [1] is recorded as 0.9947.

B26: cr789 (nucleic acid)
guide: B1 guide with T60C, G62T, C67A, A69G, G72C, T75C, A83G, C86G
modifications: listed as DNA, chemistry not fully specified
With B26, the Mean relative activity under setting [1] is listed as 0.9955.

B27: cr774 (nucleic acid)
guide: B1 guide with A20C, T60C, G62T, C67A, A69G, T75C, A83G
modifications: listed as DNA, chemistry not fully specified
With B27, under setting [1], the Mean relative activity turned out to be 0.9968.

B28: cr666 (nucleic acid)
guide: GTTTAAGAGCTAAGCTGGAAACAGCATAGCAAGTTTAAATAAGGTTAATCCGTTATCAACTTGAAAAAGTGGAGCCGAGTCGGCTCT
modifications: listed as DNA, chemistry not fully specified
Turning to B28, the Mean relative activity under setting [1] is recorded as 0.996.

B29: cr446 (nucleic acid)
guide: B28 guide with A59T, T70A, A73G, G74A, C84T, T85C
modifications: listed as DNA, chemistry not fully specified
Under setting [1], B29 gave a Mean relative activity of 0.9926.
